We go through 1 substance from paper doi:10.1101/2020.03.02.972562.

This test concerns the target RSC complex (budding yeast (S. cerevisiae) (endogenous in BJ3505)) (UniProt P32597). Description: BLI. A general note: Biolayer interferometry detects binding as a change in optical thickness at a sensor tip.
UniProt P32597, sequence (P32597 whole entry, looked up, one chain of several): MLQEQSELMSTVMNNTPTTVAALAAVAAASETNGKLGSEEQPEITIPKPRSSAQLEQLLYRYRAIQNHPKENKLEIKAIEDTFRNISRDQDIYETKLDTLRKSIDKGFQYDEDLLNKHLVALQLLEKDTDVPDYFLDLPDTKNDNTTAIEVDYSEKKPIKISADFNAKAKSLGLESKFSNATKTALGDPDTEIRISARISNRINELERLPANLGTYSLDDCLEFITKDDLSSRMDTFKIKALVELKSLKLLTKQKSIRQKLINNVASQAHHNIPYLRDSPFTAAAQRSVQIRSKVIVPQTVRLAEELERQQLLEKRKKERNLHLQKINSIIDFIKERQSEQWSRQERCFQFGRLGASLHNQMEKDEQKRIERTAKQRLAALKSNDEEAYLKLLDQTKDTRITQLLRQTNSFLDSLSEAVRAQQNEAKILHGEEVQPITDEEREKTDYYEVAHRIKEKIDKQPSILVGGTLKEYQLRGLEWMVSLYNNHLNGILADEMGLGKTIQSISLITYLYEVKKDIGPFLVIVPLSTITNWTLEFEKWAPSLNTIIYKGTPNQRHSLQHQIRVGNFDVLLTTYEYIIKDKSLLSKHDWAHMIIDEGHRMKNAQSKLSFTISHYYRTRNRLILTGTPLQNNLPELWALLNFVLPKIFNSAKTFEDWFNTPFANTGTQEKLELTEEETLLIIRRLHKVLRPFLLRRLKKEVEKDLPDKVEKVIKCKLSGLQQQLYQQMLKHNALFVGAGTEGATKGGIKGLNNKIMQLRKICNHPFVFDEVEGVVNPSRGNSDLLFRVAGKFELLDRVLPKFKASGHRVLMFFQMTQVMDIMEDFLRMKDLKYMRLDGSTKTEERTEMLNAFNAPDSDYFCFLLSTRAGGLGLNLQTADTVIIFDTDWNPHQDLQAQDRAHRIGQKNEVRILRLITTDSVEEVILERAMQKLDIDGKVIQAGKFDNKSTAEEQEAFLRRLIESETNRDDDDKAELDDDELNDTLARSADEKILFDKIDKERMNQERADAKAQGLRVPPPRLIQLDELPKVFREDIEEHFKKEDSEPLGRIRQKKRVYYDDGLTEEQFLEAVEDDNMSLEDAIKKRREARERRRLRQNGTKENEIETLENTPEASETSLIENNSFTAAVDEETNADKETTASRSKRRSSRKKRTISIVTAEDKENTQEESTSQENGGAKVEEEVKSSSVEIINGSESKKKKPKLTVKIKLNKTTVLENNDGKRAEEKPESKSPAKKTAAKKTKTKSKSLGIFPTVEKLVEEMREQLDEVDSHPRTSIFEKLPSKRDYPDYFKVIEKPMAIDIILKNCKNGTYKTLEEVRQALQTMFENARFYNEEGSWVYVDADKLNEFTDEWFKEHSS

In turn, “SUMOylated nucleosome core particles (from UniProt P68431 1-136; P62805 1-103; P04908 1-130; P02281 6-126) (complex)” displayed a fold affinity against unmodified NCPs of 2 fold.
